# Reference: PMC13544220, “Glycemic and bodyweight effects of GIPR coding variation reflect differences in surface expression and intrinsic functional impairment” (Science Advances, 2026)
# B1: R131S (protein, UniProt P48546 22-466, looked up, variant R131S)
# Gastric inhibitory …: RAETGSKGQTAGELYQRWERYRRECQETLAAAEPPSGLACNGSFDMYVCWDYAAPNATARASCPWYLPWHHHVAAGFVLRQCGSDGQWGLWRDHTQCENPEKNEAFLDQSLILERLQVMYTVGYSLSLATLLLALLILSLFRRLHCTRNYIHINLFTSFMLRAAAILSRDRLLPRPGPYLGDQALALWNQALAACRTAQIVTQYCVGANYTWLLVEGVYLHSLLVLVGGSEEGHFRYYLLLGWGAPALFVIPWVIVRYLYENTQCWERNEVKAIWWIIRTPILMTILINFLIFIRILGILLSKLRTRQMRCRDYRLRLARSTLTLVPLLGVHEVVFAPVTEEQARGALRFAKLGFEIFLSSFQGFLVSVLYCFINKEVQSEIRRGWHHCRLRRSLGEEQRQLPERAFRALPSGSGPGEVPTSRGLSSGTLPGPGNEASRELESYC
# What was measured:
# Assay type in all cases: cell-based, human
# [1] = test system: wild-type and variant SNAP-GIPR; assay: cADDis cAMP imaging in AD293 cells, ensemble, expression-matched and per decile; conditions: Fig S3F, cADDis, mean
# Procedure: AD293 cells were reverse transfected with the GIPR variant or wild-type plasmids using Lipofectamine 2000 and cotransduced with the cADDis Green Up BacMam (10 μl per well, Montana Molecular, USA), in 96-well, poly-D-lysine–coated microplates. All variants were tested in parallel on each occasion to control for transfection efficiency differences between experiments. After 24 hours, cells were labeled using 500 nM SNAP-Surface Alexa Fluor 647 for 10 min at room temperature. Cells were washed three times and then imaged in KRBH buffer containing 6 mM glucose and 0.1% BSA. Imaging was performed at 37°C by wide-field microscopy using the same microscope as in the “Assessment of surface GIPR expression by SNAP-tag labeling in cell lines” section, with 9 FOVs for both cADDis and SNAP-Surface fluorescence acquired from each well using a 10X, 0.45 NA air objective. […] Flat-field correction was performed using BaSiC ([72]), drift correction was performed using SIFT, and a maximum intensity projection of the cADDis channel was used to segment individual cells. cAMP responses were determined by quantifying the cADDis fluorescence intensity for each cell at each time point. Nonviable cells or noncell objects were excluded according to criteria for allowable cell IBMX/FSK responses. […] The cADDis mask was then used to quantify the SNAP-Surface signal from each cell. Wild-type SNAP-Surface readings were split into deciles, and these deciles were subsequently used to categorize variant-transfected cells to match against the wild type. After trimming the top and bottom deciles, the mean was taken of each decile mean for surface expression level or cAMP response, which achieved matched expression levels by effectively applying an inverse weighting to counteract differences in cell number in each decile for different variants. Ensemble expression levels or cAMP responses were calculated without regard to deciles. Variant cADDis responses were also analyzed within their own surface expression deciles.
# [2] = test system: wild-type and variant SNAP-GIPR; assay: Single-concentration GIP cAMP response by HTRF in AD293 cells; conditions: Fig S3F, HTRF, mean;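 further: ratio to experiment-wide average response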
# Procedure: (§1) All variants were tested in parallel on each occasion to control for transfection efficiency differences between experiments.
# [3] = test system: wild-type and variant SNAP-GIPR; assay: Constitutive and agonist-mediated internalization, reversible SNAP-tag labelling, INS-1 cells; parameters: key to Internalisation, GIP-only / Internalisation, Vehicle / Internalisation, +GIP: % internalization: residual fluorescence after Mesna vs pre-Mesna; conditions: Mean
# Procedure: (§2) Twenty-four hours before the experiment, AD293 or INS-1 cells were reverse transfected with GIPR variant or wild-type plasmids using Lipofectamine 2000 in 96-well, clear-bottom, black microplates precoated with poly-D-lysine. All variants were tested in parallel on each occasion to control for transfection efficiency differences between experiments. […] Media were then removed, cells washed with PBS and then placed in TNE buffer (pH 8.6) for imaging. […] After 10 min, the well was reimaged again to detect remaining fluorescence from internalized GIPR. Images were analyzed as in the “Assessment of surface GIPR expression by SNAP-tag labeling in cell lines” section, with the residual specific fluorescence after Mesna treatment expressed relative to the pre-Mesna value to establish percentage internalization.
# [4] = test system: wild-type and variant SNAP-GIPR; assay: Surface SNAP-GIPR expression (SNAP-tag labelling) in AD293 cells; conditions: for AD293 Surface: Fig S3E, mean; for Surface SNAP-GIPR expression: sheet Fig 1C;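 on all read-outs here: scaled to the experimental average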
# Method in brief: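 Read-out: whole-cell fluorescence of surface-only SNAP label (Alexa Fluor 647, 500 nM, 10 min, RT), wide-field 20X, several FOVs per well. Flat-field corrected, phase-contrast masked, nontransfected-well signal subtracted; normalized to experiment mean or wild-type.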
# [5] = test system: wild-type and variant SNAP-GIPR; assay: Single-concentration GIP cAMP response by HTRF in INS-1 cells; conditions: Fig S3E, mean
# Procedure: as §1
# [6] = test system: wild-type and variant SNAP-GIPR; assay: Constitutive and agonist-mediated internalization, reversible SNAP-tag labelling, AD293 cells; parameters: key to Internalisation, Vehicle / Internalisation, +GIP / Internalisation, GIP-only: % internalization: residual fluorescence after Mesna vs pre-Mesna; Surface expression: unit not given here; conditions: Mean
# Procedure: as §2
# [7] = test system: wild-type and variant SNAP-GIPR; assay: Surface SNAP-GIPR expression (SNAP-tag labelling) in INS-1 cells; conditions: Fig 4G; Mean
# Procedure: Twenty-four hours before the experiment, AD293 or INS-1 cells were reverse transfected with GIPR variant or wild-type plasmids using Lipofectamine 2000 in 96-well, clear-bottom, black microplates precoated with poly-D-lysine. All variants were tested in parallel on each occasion to control for transfection efficiency differences between experiments. Cells were then labeled using the cell-impermeant probe SNAP-Surface Alexa Fluor 647 (500 nM, New England Biolabs, USA) for 10 min at room temperature to label only surface GIPR. […] Several fields of view (FOVs) were acquired within each well using a 20X, 0.75–numerical aperture (NA) air objective. Surface GIPR fluorescence was quantified after flat-field correction using BaSiC ([72]) and segmenting using Phantast ([73]), which generates a mask based on the phase contrast images to demarcate cell versus noncell. Wide-field imaging of the surface-specific labeling achieved by SNAP-Surface probes means that surface expression can be established from whole-cell fluorescence, after subtracting nonspecific fluorescence from a separate well containing nontransfected cells processed in parallel from the same experiment. Data were normalized by dividing by the average specific signal across each experiment, or by the wild-type value, as indicated in the figure legends.
molecule,measurement,setting,value
B1,AD293 100 pM cADDis,"[1]; AD293, 100 pM",25.6916
same,AD293 100 nM cADDis,"[1]; AD293, 100 nM",36.03
same,AD293 100 pM HTRF,"[2]; AD293, 100 pM",0.4337
same,AD293 100 nM HTRF,"[2]; AD293, 100 nM",1.306
same,+GIP internalisation (100 nM),"[3]; Fig 4G, GIP 100 nM",0.7402
same,GIP-specific internalisation (100 nM),"[3]; Fig 4G, GIP 100 nM",0.1769
same,Constitutive internalisation (100 nM),[3]; Fig 4G,0.5633
same,"Internalisation, +GIP","[3]; Fig S4C, INS-1",45.9917
same,"Internalisation, GIP-only","[3]; Fig S4C, INS-1",10.9733
same,"Internalisation, Vehicle","[3]; Fig S4C, INS-1",35.0183
same,AD293 Surface,"[4]; column repeated, paired with cAMP 100 nM",1.362
same,AD293 Surface,[4]; paired with cAMP 100 pM,1.362
same,Surface SNAP-GIPR expression,[4]; replicate 1,0.7106
same,Surface SNAP-GIPR expression,[4]; replicate 2,2.058
same,Surface SNAP-GIPR expression,[4]; replicate 3,0.7777
same,Surface SNAP-GIPR expression,[4]; replicate 4,1.042
same,Surface SNAP-GIPR expression,[4]; replicate 5,1.12
same,Surface SNAP-GIPR expression,[4]; replicate 6,1.654
same,Surface SNAP-GIPR expression,[4]; replicate 7,1.227
same,Surface SNAP-GIPR expression,[4]; replicate 8,1.559
same,Surface SNAP-GIPR expression,[4]; replicate 9,1.551
same,Surface SNAP-GIPR expression,[4]; replicate 10,1.359
same,Surface SNAP-GIPR expression,[4]; replicate 11,1.194
same,Surface SNAP-GIPR expression,[4]; replicate 12,1.256
same,Surface SNAP-GIPR expression,[4]; replicate 13,1.318
same,Surface SNAP-GIPR expression,[4]; replicate 14,0.9106
same,Surface SNAP-GIPR expression,[4]; replicate 15,1.304
same,Surface SNAP-GIPR expression,[4]; replicate 16,1.372
same,Surface SNAP-GIPR expression,[4]; replicate 17,1.574
same,Surface SNAP-GIPR expression,[4]; replicate 18,1.448
same,Surface SNAP-GIPR expression,[4]; replicate 19,1.382
same,Surface SNAP-GIPR expression,[4]; replicate 20,1.357
same,Surface SNAP-GIPR expression,[4]; replicate 21,1.273
same,Surface SNAP-GIPR expression,[4]; replicate 22,1.627
same,Surface SNAP-GIPR expression,[4]; replicate 23,1.424
same,Surface SNAP-GIPR expression,[4]; replicate 24,1.463
same,Surface SNAP-GIPR expression,[4]; replicate 25,1.446
same,Surface SNAP-GIPR expression,[4]; replicate 26,1.405
same,Surface SNAP-GIPR expression,[4]; replicate 27,1.475
same,Surface SNAP-GIPR expression,[4]; replicate 28,1.453
same,Surface SNAP-GIPR expression,[4]; replicate 29,1.54
same,Surface SNAP-GIPR expression,[4]; replicate 30,1.363
same,Surface SNAP-GIPR expression,[4]; replicate 31,1.317
same,Surface SNAP-GIPR expression,[4]; replicate 32,1.55
same,Surface SNAP-GIPR expression,[4]; replicate 33,1.587
same,Surface SNAP-GIPR expression,[4]; replicate 34,1.477
same,Surface SNAP-GIPR expression,[4]; replicate 35,1.359
same,Surface SNAP-GIPR expression,[4]; replicate 36,1.207
same,Surface SNAP-GIPR expression,[4]; replicate 37,1.251
same,Surface SNAP-GIPR expression,[4]; replicate 38,1.505
same,Surface SNAP-GIPR expression,[4]; replicate 39,1.263
same,Surface SNAP-GIPR expression,[4]; replicate 40,1.363
same,Surface SNAP-GIPR expression,[4]; replicate 41,1.33
same,INS-1 cAMP (100 nM),[5],1.548
same,+GIP internalisation (100 nM),"[6]; Fig 4E, GIP 100 nM",0.7235
same,GIP-specific internalisation (100 nM),"[6]; Fig 4E, GIP 100 nM",0.2116
same,Constitutive internalisation (100 nM),[6]; Fig 4E,0.5118
same,Surface expression,[6]; Fig 4E,1.308
same,"Internalisation, +GIP","[6]; Fig S4C, AD293",55.4494
same,"Internalisation, GIP-only","[6]; Fig S4C, AD293",16.1484
same,"Internalisation, Vehicle","[6]; Fig S4C, AD293",39.3009
same,Surface expression,[7],1.447
